# From IntAct's records for PubMed 11741956
# B1: Proto-oncogene tyrosine-protein kinase LCK (Mus musculus), P06240 (parent)
# chain: MGCVCSSNPEDDWMENIDVCENCHYPIVPLDSKISLPIRNGSEVRDPLVTYEGSLPPASPLQDNLVIALHSYEPSHDGDLGFEKGEQLRILEQSGEWWKAQSLTTGQEGFIPFNFVAKANSLEPEPWFFKNLSRKDAERQLLAPGNTHGSFLIRESESTAGSFSLSVRDFDQNQGEVVKHYKIRNLDNGGFYISPRITFPGLHDLVRHYTNASDGLCTKLSRPCQTQKPQKPWWEDEWEVPRETLKLVERLGAGQFGEVWMGYYNGHTKVAVKSLKQGSMSPDAFLAEANLMKQLQHPRLVRLYAVVTQEPIYIITEYMENGSLVDFLKTPSGIKLNVNKLLDMAAQIAEGMAFIEEQNYIHRDLRAANILVSDTLSCKIADFGLARLIEDNEYTAREGAKFPIKWTAPEAINYGTFTIKSDVWSFGILLTEIVTHGRIPYPGMTNPEVIQNLERGYRMVRPDNCPEELYHLMMLCWKERPEDRPTFDYLRSVLDDFFTATEGQYQPQP
# Variants of: B1
# Conditions: with cbl_human CBL
row,effect of a mutation on the interaction,Variant
1,decreasing interaction,W97A
